Assay results taken from FireProtDB (doi:10.1016/0168-1656(93)90129-b).

B1: Ribonuclease HI, P0A7Y4 (parent)
chain: MLKQVEIFTDGSCLGNPGPGGYGAILRYRGREKTFSAGYTRTTNNRMELMAAIVALEALKEHCEVILSTDSQYVRQGITQWIHNWKKRGWKTADKKPVKNVDLWQRLDAALGQHQIKWEWVKGHAGHPENERCDELARAAAMNPTLEDTGYQVEV

Variants of: B1
Details: Escherichia coli (strain K12), CD, reversible: yes, structure 2RN2, whole UniProt chain shown; for Tm / change of melting temperature, mutant - wild type (higher = more stable): Thermal; for ddG of mutation (higher = less stable) / denaturant midpoint (higher = more stable) / unfolding free energy: 25 °C, GdnHCl

In the case of H83A, the Tm (pH 3, glycine-HCl 10 mM) is reported as 51.5 °C, the “change of melting temperature, mutant - wild type (higher = more stable)” value (from here on “change of melting temperature, mutant”) (pH 3, glycine-HCl 10 mM) is reported as 2.1 °C and the “ddG of mutation (higher = less stable)” value (pH 5.5, Sodium acetate 20 mM) is reported as -0.22 kcal/mol. The “denaturant midpoint (higher = more stable)” value (“denaturant midpoint” below) (pH 5.5, Sodium acetate 20 mM) was 1.83 M, the unfolding free energy (pH 5.5, Sodium acetate 20 mM) was 9.43 kcal/mol and the Tm (pH 5.5, Sodium acetate 20 mM) was 52.8 °C. The “change of melting temperature, mutant” value (pH 5.5, Sodium acetate 20 mM) was 0.1 °C, the Tm (pH 7.8, Sodium phosphate 20 mM) was 50 °C and the “change of melting temperature, mutant” value (pH 7.8, Sodium phosphate 20 mM) was -0.2 °C. The “ddG of mutation (higher = less stable)” value (pH 8.2, Tris-HCl 20 mM) was 0.09 kcal/mol, the “denaturant midpoint” value (pH 8.2, Tris-HCl 20 mM) was 1.63 M and the unfolding free energy (pH 8.2, Tris-HCl 20 mM) was 8.4 kcal/mol.

For H114A, the Tm (pH 7.8, Sodium phosphate 20 mM) was 42.5 °C and the “change of melting temperature, mutant” value (pH 7.8, Sodium phosphate 20 mM) was -7.7 °C.

For H127A, the Tm (pH 3, glycine-HCl 10 mM) was 50.3 °C, the “change of melting temperature, mutant” value (pH 3, glycine-HCl 10 mM) was 0.9 °C and the “ddG of mutation (higher = less stable)” value (pH 5.5, Sodium acetate 20 mM) was 0.24 kcal/mol. The “denaturant midpoint” value (pH 5.5, Sodium acetate 20 mM) was 1.74 M, the unfolding free energy (pH 5.5, Sodium acetate 20 mM) was 8.97 kcal/mol and the “ddG of mutation (higher = less stable)” value (pH 8.2, Tris-HCl 20 mM) was 0.31 kcal/mol. The “denaturant midpoint” value (pH 8.2, Tris-HCl 20 mM) was 1.59 M and the unfolding free energy (pH 8.2, Tris-HCl 20 mM) was 8.18 kcal/mol.

In the case of H62A H83A H124A H127A, the Tm (pH 3, glycine-HCl 10 mM) is reported as 54.9 °C, the “change of melting temperature, mutant” value (pH 3, glycine-HCl 10 mM) is reported as 5.5 °C and the Tm (pH 7.8, Sodium phosphate 20 mM) is reported as 51.7 °C. For the same variant, the “change of melting temperature, mutant” value (pH 7.8, Sodium phosphate 20 mM) was 1.5 °C.

With H124A the Tm (pH 3, glycine-HCl 10 mM) was 51.1 °C, the “change of melting temperature, mutant” value (pH 3, glycine-HCl 10 mM) was 1.7 °C and the “ddG of mutation (higher = less stable)” value (pH 5.5, Sodium acetate 20 mM) was -0.17 kcal/mol. For the same variant, the “denaturant midpoint” value (pH 5.5, Sodium acetate 20 mM) was 1.82 M, the unfolding free energy (pH 5.5, Sodium acetate 20 mM) was 9.38 kcal/mol and the Tm (pH 5.5, Sodium acetate 20 mM) was 52.7 °C. The “change of melting temperature, mutant” value (pH 5.5, Sodium acetate 20 mM) was 0 °C, the Tm (pH 7.8, Sodium phosphate 20 mM) was 50.3 °C and the “change of melting temperature, mutant” value (pH 7.8, Sodium phosphate 20 mM) was 0.1 °C. For the same variant, the “ddG of mutation (higher = less stable)” value (pH 8.2, Tris-HCl 20 mM) was -0.05 kcal/mol, the “denaturant midpoint” value (pH 8.2, Tris-HCl 20 mM) was 1.66 M and the unfolding free energy (pH 8.2, Tris-HCl 20 mM) was 8.54 kcal/mol.

In the case of H62A, the Tm (pH 3, glycine-HCl 10 mM) is reported as 50.7 °C, the “change of melting temperature, mutant” value (pH 3, glycine-HCl 10 mM) is reported as 1.3 °C and the “ddG of mutation (higher = less stable)” value (pH 5.5, Sodium acetate 20 mM) is reported as -0.36 kcal/mol. For the same variant, the “denaturant midpoint” value (pH 5.5, Sodium acetate 20 mM) was 1.86 M, the unfolding free energy (pH 5.5, Sodium acetate 20 mM) was 9.57 kcal/mol and the Tm (pH 7.8, Sodium phosphate 20 mM) was 51.2 °C. The “change of melting temperature, mutant” value (pH 7.8, Sodium phosphate 20 mM) was 1 °C, the “ddG of mutation (higher = less stable)” value (pH 8.2, Tris-HCl 20 mM) was -0.58 kcal/mol and the “denaturant midpoint” value (pH 8.2, Tris-HCl 20 mM) was 1.76 M. For the same variant, the unfolding free energy (pH 8.2, Tris-HCl 20 mM) was 9.07 kcal/mol.

For H62A H83A, the Tm (pH 7.8, Sodium phosphate 20 mM) was 51.5 °C and the “change of melting temperature, mutant” value (pH 7.8, Sodium phosphate 20 mM) was 1.3 °C.

With H124A H127A the Tm (pH 3, glycine-HCl 10 mM) was 53 °C, the “change of melting temperature, mutant” value (pH 3, glycine-HCl 10 mM) was 3.6 °C and the Tm (pH 5.5, Sodium acetate 20 mM) was 52.1 °C. For the same variant, the “change of melting temperature, mutant” value (pH 5.5, Sodium acetate 20 mM) was -0.6 °C, the Tm (pH 7.8, Sodium phosphate 20 mM) was 50.1 °C and the “change of melting temperature, mutant” value (pH 7.8, Sodium phosphate 20 mM) was -0.1 °C.
